Test results from article PMC5852640.

Tests used:
[1] = target: BG505 SOSIP.664 HIV-1 envelope glycoprotein trimer (HIV-1 (BG505, clade A)); assay: SEC; purified Drug Substance of the 50 L Confirmation, 200 L Demonstration and 200 L cGMP runs; SEC / SE-HPLC; details in SOM Methods
[2] = target: BG505 SOSIP.664 HIV-1 envelope glycoprotein trimer (HIV-1 (BG505, clade A)); assay: negative-stain electron microscopy; NS-EM imaging of the purified Drug Substance of the three production runs; details in SOM Methods

BG505 SOSIP.664 HIV-1 envelope glycoprotein trimer (complex)
stoichiometry N [1]: 3 | stoichiometry N [2]: 3
